Consider 1 substance from paper PMC6282759, “FlhF(T368A) modulates motility in the bacteriophage carrier state of Campylobacter jejuni” (Molecular Microbiology, 2018).

The data set relates to Nc1nc2c(ncn2[C@@H]2O[C@H](COP(=O)(O)OP(=O)(O)OP(=O)(O)O)[C@@H](O)[C@H]2O)c(=O)[nH]1. Nature of the data set: purified protein. The following applies: 42 °C, Tris buffer, MgCl2, GTP 0.05-1 mM.

As usually defined, the Km is the concentration of substrate that gives half-maximal velocity. A word on the kcat: it is the number of substrate molecules converted per active site and unit of time at saturation.

For “FlhF (Campylobacter jejuni subsp. jejuni NCTC 11168 = ATCC 700819)”, the Km turned out to be 0.075 mM and the kcat turned out to be 0.0115 s⁻¹.
